The record followed here is patent US20170157251A1 (MacroGenics, published 2017).

For assay [1], the target named is T1, cynomolgus monkey CD3 on T cells (cynomolgus monkey, UniProt Q95LI5 22-198; Q95LI8 22-171).
T1 construct: T cells were gated as CD4+ and CD8+; also called CD3 on cynomolgus monkey CD4+ and CD8+ T cells
Briefly: flow cytometry on cynomolgus monkey blood leukocytes, CD4+ and CD8+ gate (T cells); detection with biotinylated anti-E-coil/K-coil mAb and streptavidin-PE.

In a further assay the target is T2, human CD19 on cells (human, UniProt P15391 20-556).
T2 construct: whole, on cells; also called CD19 on human CD20+ B cells; CD19 on Raji/GF, HBL-2, Jeko-1 cells
T2 sequence (looked up): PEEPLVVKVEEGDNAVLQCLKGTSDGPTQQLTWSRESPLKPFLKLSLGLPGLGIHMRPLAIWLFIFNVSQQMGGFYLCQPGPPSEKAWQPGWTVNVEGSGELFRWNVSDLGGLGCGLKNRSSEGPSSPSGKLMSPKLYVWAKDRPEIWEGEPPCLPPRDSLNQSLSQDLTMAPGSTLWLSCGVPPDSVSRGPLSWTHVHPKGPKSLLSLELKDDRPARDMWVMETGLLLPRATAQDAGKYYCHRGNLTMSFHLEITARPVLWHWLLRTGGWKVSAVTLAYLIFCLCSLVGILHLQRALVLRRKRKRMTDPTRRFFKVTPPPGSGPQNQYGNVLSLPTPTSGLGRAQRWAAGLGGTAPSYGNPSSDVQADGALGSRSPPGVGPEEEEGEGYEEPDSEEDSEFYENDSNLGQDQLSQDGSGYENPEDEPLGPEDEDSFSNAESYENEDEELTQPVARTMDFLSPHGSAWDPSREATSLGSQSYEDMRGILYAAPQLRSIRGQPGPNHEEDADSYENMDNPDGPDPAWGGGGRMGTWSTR
Nature of the assay: flow cytometry on human blood leukocytes, CD20+ gate (B cells); detection with biotinylated anti-E-coil/K-coil mAb and streptavidin-PE.

The target in assay [2] is T3, soluble human CD19-biotin (human, UniProt P15391 20-291, limits assumed, biotin (site not stated)).
T3 construct: Detection antigen of the bifunctional ELISA
T3 sequence (looked up): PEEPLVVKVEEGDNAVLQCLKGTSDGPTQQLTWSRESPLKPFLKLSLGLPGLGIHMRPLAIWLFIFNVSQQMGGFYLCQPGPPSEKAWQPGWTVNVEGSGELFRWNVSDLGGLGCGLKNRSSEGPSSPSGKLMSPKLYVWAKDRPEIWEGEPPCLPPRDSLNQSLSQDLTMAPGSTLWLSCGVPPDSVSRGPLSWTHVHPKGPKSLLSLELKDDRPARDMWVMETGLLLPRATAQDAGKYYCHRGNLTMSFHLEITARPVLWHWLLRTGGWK
Briefly: bifunctional (bispecific) ELISA: plate coated with soluble human CD3ε/δ, DART titrated, detected with soluble human CD19-biotin.

The next assay concerns the target T4, human CD3 on T cells (human, UniProt P07766 23-207; P04234 22-171).
T4 construct: also called CD3 on human CD4+ and CD8+ T cells; copies: 1 + 1
Nature of the assay: flow cytometry on human blood leukocytes, CD4+ and CD8+ gate (T cells); detection with biotinylated anti-E-coil/K-coil mAb and streptavidin-PE.

T1 sequence (Q95LI5 22-198 limits assumed, chain 1 of 2): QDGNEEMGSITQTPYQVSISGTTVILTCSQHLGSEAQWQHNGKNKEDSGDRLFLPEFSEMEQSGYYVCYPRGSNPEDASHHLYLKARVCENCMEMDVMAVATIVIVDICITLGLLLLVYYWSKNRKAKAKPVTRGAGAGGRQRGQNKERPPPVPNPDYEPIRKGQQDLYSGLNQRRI
T1 sequence (Q95LI8 22-171 limits assumed, chain 2 of 2): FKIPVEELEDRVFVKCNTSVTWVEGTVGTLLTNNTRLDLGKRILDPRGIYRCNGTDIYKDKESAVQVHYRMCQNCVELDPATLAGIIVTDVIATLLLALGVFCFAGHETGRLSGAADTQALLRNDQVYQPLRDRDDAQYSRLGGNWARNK
T4 sequence (P07766 23-207 limits assumed, chain 1 of 2): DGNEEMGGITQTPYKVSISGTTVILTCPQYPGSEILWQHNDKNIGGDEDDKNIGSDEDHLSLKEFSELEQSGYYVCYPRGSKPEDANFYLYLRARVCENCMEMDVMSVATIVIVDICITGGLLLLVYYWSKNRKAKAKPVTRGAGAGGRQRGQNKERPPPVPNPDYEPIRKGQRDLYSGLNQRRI
T4 sequence (P04234 22-171 limits assumed, chain 2 of 2): as the sequence (Q95LI8 22-171 limits assumed, chain 2 of 2) above, with V5I, K15N, V20I, T32S, N33D, N34I, A64T, N74S, L83V, R141H counted along it

B1: Control DART 1 (Fluorescein×CD3) (bispecific antibody)
chain 1: DVVMTQTPFSLPVSLGDQASISCRSSQSLVHSNGNTYLRWYLQKPGQSPKVLIYKVSNRFSGVPDRFSGSGSGTDFTLKISRVEAEDLGVYFCSQSTHVPWTFGGGTKLEIKGGGSGGGGEVQLVESGGGLVQPGGSLRLSCAASGFTFSTYAMNWVRQAPGKGLEWVGRIRSKYNNYATYYADSVKGRFTISRDDSKNSLYLQMNSLKTEDTAVYYCVRHGNFGNSYVSWFAYWGQGTLVTVSSASTKGEVAACEKEVAALEKEVAALEKEVAALEKGGGDKTHTCPPCPAPEAAGGPSVFLFPPKPKDTLMISRTPEVTCVVVDVSHEDPEVKFNWYVDGVEVHNAKTKPREEQYNSTYRVVSVLTVLHQDWLNGKEYKCKVSNKALPAPIEKTISKAKGQPREPQVYTLPPSREEMTKNQVSLWCLVKGFYPSDIAVEWESNGQPENNYKTTPPVLDSDGSFFLYSKLTVDKSRWQQGNVFSCSVMHEALHNHYTQKSLSLSPGK
chain 2: QAVVTQEPSLTVSPGGTVTLTCRSSTGAVTTSNYANWVQQKPGQAPRGLIGGTNKRAPWTPARFSGSLLGGKAALTITGAQAEDEADYYCALWYSNLWVFGGGTKLTVLGGGGSGGGGEVKLDETGGGLVQPGRPMKLSCVASGFTFSDYWMNWVRQSPEKGLEWVAQIRNKPYNYETYYSDSVKGRFTISRDDSKSSVYLQMNNLRVEDMGIYYCTGSYYGMDYWGQGTSVTVSSASTKGKVAACKEKVAALKEKVAALKEKVAALKE
chain 3: not shown
notes: other arm is anti-fluorescein 4-4-20
Regarding B1, the binding result in assay [1] is recorded as “binds”; in the assay with human CD19 on cells, “no binding (tested: about 80 nM)”; in assay [2], “no binding (tested: about 5 µg/ml)”; in the assay with human CD3 on T cells it was “binds”.
